Laboratory results taken from patent US20090104231A1.

How the values were obtained:
[1] = target: NS3 CD8 peptide … presented by MHC of C57B1 mice (Hepatitis C virus)
[2] = target: NS3 CD4 peptide … presented by MHC of C57B1 mice (Hepatitis C virus)
[3] = target: NS3 CD8 peptide … presented by MHC of C57B1 mice (Hepatitis C virus); remark: listed apart in the source
[4] = target: NS3 CD4 peptide … presented by MHC of C57B1 mice (Hepatitis C virus); remark: listed apart in the source
[5] = target: NS3 CD8 peptide … presented by MHC of C57B1 mice (Hepatitis C virus); remark: listed apart in the source
[6] = target: NS3 CD4 peptide … presented by MHC of C57B1 mice (Hepatitis C virus); remark: listed apart in the source
[7] = target: purified HCV NS3 protein (genotype 1b) from Mikrogen (Hepatitis C virus genotype 1b)
[8] = target: NS5B CD4 peptide … presented by MHC of C57BL/6 mice (Hepatitis C virus)
[9] = target: purified HCV NS5B protein (genotype 1b) from Mikrogen (Hepatitis C virus genotype 1b)
[10] = target: NS5B CD8 peptide … presented by MHC of C57BL/6 mice (Hepatitis C virus)
[11] = target: NS4B CD4 peptide … presented by MHC of Balb/c mice (Hepatitis C virus)
[12] = target: NS4B CD8 peptide … presented by MHC of Balb/c mice (Hepatitis C virus)
[13] = target: purified HCV NS4 protein (genotype 1b) from Mikrogen (Hepatitis C virus genotype 1b)

Row | Substance | intracellular cytokine staining of IFNγ and IL2 (fold over the Core 191 group) [1] | intracellular cytokine staining of IFNγ and IL2 (fold over the Core 191 group) [2] | intracellular cytokine staining (fold over the Core 191 group) [3] | intracellular cytokine staining (fold over the Core 191 group) [4] | IFNγ-producing T cells, intracellular cytokine staining (% of CD8+ cells (unit from paragraph 162)) [5] | IFNγ-producing T cells, intracellular cytokine staining (frequency (unit not given)) [6] | IFNγ-producing T cells, intracellular cytokine staining (frequency (unit not given)) [7] | IFNγ-producing T cells, intracellular cytokine staining (frequency (unit not given)) [8] | IFNγ-producing T cells, intracellular cytokine staining (frequency (unit not given)) [9] | IFNγ-producing T cells, intracellular cytokine staining (frequency (unit not given)) [10] | IFNγ-producing T cells, intracellular cytokine staining (frequency (unit not given)) [11] | IFNγ-producing T cells, intracellular cytokine staining (frequency (unit not given)) [12] | IFNγ-producing T cells, intracellular cytokine staining (frequency (unit not given)) [13] | IFNγ-producing T cells, intracellular cytokine staining (frequency (unit not given)) [5]
1 | T cells of C57BL mice immunised with gold beads co-coated with p7313ieNS3, p7313ieNS5B and p7313ieCore151 (cells without a defined receptor) | 2 | 2 | – | – | – | – | – | – | – | – | – | – | – | –
2 | T cells of C57BL mice immunised with gold beads co-coated with p7313ieNS3/NS4B/NS5B triple fusion together with core 151 (cells without a defined receptor) | – | – | 2 | 2 | – | – | – | – | – | – | – | – | – | –
3 | splenocytes of C57BL mice immunised with DNA encoding NS3 alone (cells without a defined receptor) | – | – | – | – | 4.4 | 0.24 | 0.29 | – | – | – | – | – | – | –
4 | splenocytes of C57BL mice immunised with DNA encoding polyprotein HCV 500 (Core-NS3-NS4B-NS5B) (cells without a defined receptor) | – | – | – | – | 5.54 | 0.38 | 0.27 | 0.43 | 0.14 | 0.35 | 0.1 | 0.6 | 0.09 | –
5 | splenocytes of C57BL mice immunised with DNA encoding polyprotein HCV 501 (Core (66-191)-(1-65)-NS3-NS4B-NS5B) (cells without a defined receptor) | – | – | – | – | – | 0.08 | 0.05 | 0.13 | 0.03 | 0.09 | 0.06 | 0.13 | 0.09 | 0.16
6 | splenocytes of C57BL mice immunised with DNA encoding polyprotein HCV 510 (NS3-NS4B-NS5B-Core) (cells without a defined receptor) | – | – | – | – | 3.95 | 0.29 | 0.17 | 0.29 | 0.1 | 0.11 | 0.09 | 0.34 | 0.09 | –
7 | splenocytes of C57BL mice immunised with DNA encoding polyprotein HCV 520 (NS4B-NS5B-Core-NS3) (cells without a defined receptor) | – | – | – | – | 3.32 | 0.28 | 0.14 | 0.18 | 0.09 | 0.08 | 0.05 | 0.33 | 0.08 | –
8 | splenocytes of C57BL mice immunised with DNA encoding polyprotein HCV 530 (NS5B-Core-NS3-NS4B) (cells without a defined receptor) | – | – | – | – | 4.89 | 0.21 | 0.15 | 0.7 | 0.06 | 0.12 | 0.1 | 0.37 | 0.17 | –
9 | splenocytes of mice immunised with DNA encoding NS4B as single antigen (cells without a defined receptor) | – | – | – | – | – | – | – | – | – | – | 0.18 | 2.04 | 0.17 | –
10 | splenocytes of mice immunised with DNA encoding NS5B as single antigen (cells without a defined receptor) | – | – | – | – | – | – | – | 0.26 | 0.1 | 1.67 | – | – | – | –
